Laboratory results taken from publication PMC8870054.

Molecular target: CLOBY biosensor (His6-mClover3-spacer with TEV site-Src SH4, unique and SH3 domains-spacer-mRuby3)
Assay: dynamic light scattering; hydrodynamic radius at variable concentrations up to 275 uM, 25 °C; apparent; dimer to monomers

Kd: 700 µM
Substance: CLOBY biosensor (His6-mClover3-spacer with TEV site-Src SH4, unique and SH3 domains-spacer-mRuby3)
